Changes are numbered by the printed parent chain.

Here are results for ten molecules from patent publication US20210095036A1 (University of Pennsylvania, published 2021).

First the molecules themselves.
T1: GFRα4 isoform a (GFRα4a), Fc fusion with 6 His (human)
T1 construct: the entry holds the whole fusion; also called GFR4α4a; immobilized GFRα4 isoform a
T1 chain: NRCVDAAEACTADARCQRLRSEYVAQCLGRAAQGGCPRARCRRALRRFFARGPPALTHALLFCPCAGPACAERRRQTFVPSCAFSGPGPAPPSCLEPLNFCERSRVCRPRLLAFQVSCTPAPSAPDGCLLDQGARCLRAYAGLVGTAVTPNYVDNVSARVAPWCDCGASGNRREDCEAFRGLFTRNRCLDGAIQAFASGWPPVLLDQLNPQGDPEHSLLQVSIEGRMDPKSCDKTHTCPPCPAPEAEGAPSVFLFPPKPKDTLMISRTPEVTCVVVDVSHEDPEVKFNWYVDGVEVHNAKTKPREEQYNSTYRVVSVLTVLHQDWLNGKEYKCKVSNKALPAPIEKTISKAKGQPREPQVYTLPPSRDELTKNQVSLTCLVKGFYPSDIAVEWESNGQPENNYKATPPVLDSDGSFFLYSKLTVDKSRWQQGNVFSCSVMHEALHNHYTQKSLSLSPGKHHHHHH

B1: 25.H1.L1m3 (scFv)
scFv: QLVLTQSPSASASLGASVKLTCTLSSAHKTYTIDWYQQQPEKGPRYLMQVKSDGSYTKGTGVPDRFSGSSSGADRYLTISSLQSEDEADYYCGADDNGGYVFGGGTQLTVLGGGSSRSSSSGGGGSGGGGQVQLQESGPGLVKPSETLSLTCAVSGYSISRHALTWIRQPPGKGLEWIGAIDNAGTTYYASWAKSRVTISVDTSKNQFSLKLSSVTAADTAVYYCARVFYDINSGYYLDGMDLWGPGTLVTVSS
notes: pIII not in the entry; order Vλ-linker-VH; also called scFv 25
B2: 26.H1.L1m4 (scFv)
scFv: B1 scFv with D34A, Y36H
notes: pIII not in the entry; order Vλ-linker-VH; also called scFv 26
B3: 22.H1.L1m2 (scFv)
scFv: B1 scFv with L2F, Y36H, V62I, D74E
notes: pIII not in the entry; order Vλ-linker-VH; also called scFv 22
B4: 14.H1.L1m1 (scFv)
scFv: B1 scFv with L2F, L111T
notes: pIII not in the entry; order Vλ-linker-VH; also called scFv 14
B5: 17.H1.L3m2 (scFv)
scFv: QFVLTQPASVSGSPGQSITISCTLSSAHKTYTIDWYQQHPGKAPKLMIQVKSDGSYTKGTGVSNRFSGSSSGADRYLTISGLQAEDEADYYCGADDNGGYVFGGGTQLTVLGGGSSRSSSSGGGGSGGGGQVQLQESGPGLVKPSETLSLTCAVSGYSISRHALTWIRQPPGKGLEWIGAIDNAGTTYYASWAKSRVTISVDTSKNQFSLKLSSVTAADTAVYYCARVFYDINSGYYLDGMDLWGPGTLVTVSS
notes: pIII not in the entry; order Vλ-linker-VH; also called scFv 17
B6: 19.H2.L2m2 (scFv)
scFv: QFVLTQPPSASGTPGQRVTISCTLSSAHKTYTIDWYQQLPGTAPKLLIYVKSDGSYTKGTGVPDRFSGSSSGADASLAISGLQSEDEADYYCGADDNGGYVFGGGTQLTVLGGGSSRSSSSGGGGSGGGGEVQLVESGGGLVQPGGSLRLSCAASGFTFSRHALTWVRQAPGKGLEWVSAIDNAGTTYYASWAKSRFTISRDNAKNSLYLQMNSLRAEDTAVYYCARVFYDINSGYYLDGMDLWGPGTLVTVSS
notes: pIII not in the entry; order Vλ-linker-VH; also called scFv 19
B7: 20.H2.L2m3 (scFv)
scFv: B6 scFv with F2S, S70K, A73T, D74S
notes: pIII not in the entry; order Vλ-linker-VH; also called scFv 20
B8: 6.H2.L2m1 (scFv)
scFv: B6 scFv with A75R, S76Y, L111T
notes: pIII not in the entry; order Vλ-linker-VH; also called scFv 6
B9: 12.H2m1.L1m1 (scFv)
scFv: QFVLTQSPSASASLGASVKLTCTLSSAHKTYTIDWYQQQPEKGPRYLMQVKSDGSYTKGTGVPDRFSGSSSGADRYLTISSLQSEDEADYYCGADDNGGYVFGGGTQLTVTGGGSSRSSSSGGGGSGGGGEQSVKESGGGLVQPGGSLRLSCAASGFTLSRHALTWVRQAPGKGLEWIGAIDNAGTTYYASWAKSRFTISRNTDLHTVYLQMNSLRAEDTAVYFCARVFYDINSGYYLDGMDLWGPGTLVTVSS
notes: pIII not in the entry; order Vλ-linker-VH; The printed entry has an E before QSVKE of the VH; also called scFv 12
B10: 10.H2.L1m1 (scFv)
scFv: QFVLTQSPSASASLGASVKLTCTLSSAHKTYTIDWYQQQPEKGPRYLMQVKSDGSYTKGTGVPDRFSGSSSGADRYLTISSLQSEDEADYYCGADDNGGYVFGGGTQLTVTGGGSSRSSSSGGGGSGGGGEVQLVESGGGLVQPGGSLRLSCAASGFTFSRHALTWVRQAPGKGLEWVSAIDNAGTTYYASWAKSRFTISRDNAKNSLYLQMNSLRAEDTAVYYCARVFYDINSGYYLDGMDLWGPGTLVTVSS
notes: pIII not in the entry; order Vλ-linker-VH; also called scFv 10

One assay deals with T2, GFRα4 isoform b (GFRα4b), Fc fusion (human).
T2 construct: the entry holds the whole fusion; also called GFR4α4b; GFRα4-Fc
As to the kind of experiment: phage ELISA, immobilized GFRα4b; second token of the cell. The source says:
(§1) To perform these ELISAs, the GFRα4a isoform comprising a portion of GFRα4a (Asn24 -Ser245, UniProt accession #Q9GZZ7-2) was used, followed by a Factor Xa cleavage site/linker, a portion of optimized IgG1 Fc domain (Pro100-Lys330), and 6 His residues for purification. The GFRα4b isoform comprised a portion of GFRα4b (Asn24-Va1274, UniProt #Q9GZZ7-1), followed by a TEV cleavage site linker, and a portion of human IgG1 Fc domain (Asp104-Lys330).
(An ELISA detects its analyte on a solid surface through an enzyme-linked reagent.)
Regarding B1, the binding result was “binds”.

Turning to B2, the binding result is on record as “no binding”.

As to B3, the binding result is on record as “no binding”.

Take B4: the binding result was “binds”.

As for B5, the binding result is listed as “binds”.

Turning to B6, the binding result is “no binding”.

As for B7, the binding result was “no binding”.

Regarding B8, the binding result is given as “binds”.

For B9, the binding result is “binds”.

For B10, the binding result is recorded as “binds”.

The target of the next assay is T1, GFRα4 isoform a (GFRα4a), Fc fusion …. As to the kind of experiment: phage ELISA, immobilized GFRα4a; first token of the cell.
Text: as §1
Consider B1, for which the binding result was “binds”.

Regarding B2, the binding result is “no binding”.

As for B3, the binding result was “no binding”.

Regarding B4, the binding result is listed as “binds”.

Regarding B6, the binding result was “no binding”.

Take B7: the binding result was “no binding”.

Turning to B8, the binding result was “binds”.

In the case of B9, the binding result is on record as “binds”.

For the molecule B10, the binding result was “binds”.
